Assays:
[1] = biological target: T1, recombinant human IL-1α (human, UniProt P01583 113-271); assay: cell-based or functional assay
T1 sequence (looked up): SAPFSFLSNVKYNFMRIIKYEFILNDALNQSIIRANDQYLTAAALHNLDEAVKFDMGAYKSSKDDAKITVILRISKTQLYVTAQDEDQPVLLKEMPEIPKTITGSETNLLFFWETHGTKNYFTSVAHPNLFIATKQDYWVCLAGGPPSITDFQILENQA

[2] = biological target: recombinant human IL-1β (human, UniProt P01584 117-269); assay: cell-based or functional assay
[3] = biological target: T1, recombinant human IL-1α; assay: cell-based or functional assay; remark: listed apart in the source
[4] = biological target: T1, recombinant human IL-1α; assay: SPR (Biacore); end of the range tied to DVD1-Ig by the Kd values of Table 13
Protocol: The kinetics of DVD-Ig binding to rhIL1-α and rhIL1-β was determined by surface plasmon resonance-based measurements with a Biacore 3000 instrument (Biacore AB, Uppsala, Sweden) using HBS-EP (10 mM HEPES, pH 7.4, 150 mM NaCl, 3 mM EDTA, and 0.005% surfactant P20) at 25° C. All chemicals were obtained from Biacore AB (Uppsala, Sweden) or otherwise from a different source as described herein. Approximately, 5000 RU of goat anti-human IgG Fcγ fragment specific polyclonal antibody (Pierce Biotechnology Inc, Rockford, Ill.) diluted in 10 mM sodium acetate (pH 4.5) was directly immobilized across a CM5 research grade biosensor chip using a standard amine coupling kit according to manufacturer's instructions and procedures at […]. Unreacted moieties on the biosensor surface were blocked with ethanolamine. Modified carboxymethyl dextran surface in flowcell 2 and 4 was used as a reaction surface. Unmodified carboxymethyl dextran without goat anti-human IgG in flow cell 1 and 3 was used as the reference surface. […] The association and dissociation rate constants, kon (M-1s-1) and koff (s-1) were determined under a continuous flow rate of […]. […] The equilibrium dissociation constant (M) of the reaction between DVD-Ig and rhIL1α/β was then calculated from the kinetic rate constants by the following formula: KD=koff/kon. […]

[5] = biological target: T2, human IL-12 (human, UniProt P29459 23-219; P29460 23-328); assay: cell-based or functional assay
T2 sequence (looked up) 1: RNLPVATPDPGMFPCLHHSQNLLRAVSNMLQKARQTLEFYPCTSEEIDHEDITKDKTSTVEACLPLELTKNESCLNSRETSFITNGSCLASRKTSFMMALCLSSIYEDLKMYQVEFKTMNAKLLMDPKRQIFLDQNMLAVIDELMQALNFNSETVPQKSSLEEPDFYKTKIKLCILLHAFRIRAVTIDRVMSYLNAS
T2 sequence (looked up) 2: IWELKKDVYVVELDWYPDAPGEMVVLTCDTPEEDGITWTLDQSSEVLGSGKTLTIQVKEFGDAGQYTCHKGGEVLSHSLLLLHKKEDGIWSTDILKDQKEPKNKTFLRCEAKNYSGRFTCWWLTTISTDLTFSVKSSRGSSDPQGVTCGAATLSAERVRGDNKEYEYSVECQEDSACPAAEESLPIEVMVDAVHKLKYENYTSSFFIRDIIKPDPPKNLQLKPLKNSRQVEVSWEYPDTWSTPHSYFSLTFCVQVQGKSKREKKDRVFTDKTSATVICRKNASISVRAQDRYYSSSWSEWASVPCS

[6] = biological target: T3, human IL-18 (human, UniProt Q14116 37-193); assay: cell-based or functional assay
[7] = biological target: T2, human IL-12; assay: SPR (Biacore)
[8] = biological target: T3, human IL-18; assay: SPR (Biacore)

B1: hIL-1a/bDVD6a-Ig (bispecific antibody, human IgG1, kappa)
heavy: not shown
light: QIVLTQSPALMSASPGEKVTMTCSASSSVNYMYWYQQKPRSSPKPWIYLTSNLASGVPARFSGSGSGTSYSLTISSMEAEDAATYYCQQWNSNPYTFGGGTKLEMKRTVAAPSVFIFPPQIVLTQSPAIMSASPGEKVTITCSASSSVSYMHWFQQKPGASPKLWIYSTSNLASGVPARFSGSGSGTSYSLTVSRMEAEDAATYYCQQRSTYPYTFGGGTKLEIKRRTVAAPSVFIFPPSDEQLKSGTASVVCLLNNFYPREAKVQWKVDNALQSGNSQESVTEQDSKDSTYSLSSTLTLSKADYEKHKVYACEVTHQGLSSPVTKSFNRGEC
- Potency (IC50) M, IL-1α, MRC-5 bioassay [1]: 2.3 nM
- Potency (IC50) M, IL-1β, MRC-5 bioassay [2]: 70 nM

B2: hIL-1a/bDVD3a-Ig (bispecific antibody, human IgG1, kappa)
heavy: not shown
light: DIVMTQSQRFMSTSVGDRVSVTCKASQNVGTNIAWYQQKPGQSPRALIYSASYRYSGVPDRFTGSGSGTDFTLTISNVQSVDLAEYFCQQYTRYPLTFGGGTKLEIKRTVAAPETTVTQSPASLSMAIGEKVTIRCITSTDIDVDMNWYQQKPGEPPKLLISQGNTLRPGVPSRFSSSGSGTDFVFIIENMLSEDVADYYCLQSDNLPLTFGAGTKLELKRRTVAAPSVFIFPPSDEQLKSGTASVVCLLNNFYPREAKVQWKVDNALQSGNSQESVTEQDSKDSTYSLSSTLTLSKADYEKHKVYACEVTHQGLSSPVTKSFNRGEC
- Potency (IC50) M, IL-1α, MRC-5 bioassay [1]: 0.75 nM

B3: hIL-1a/bDVD1-Ig (bispecific antibody, human IgG1, kappa)
heavy: not shown
light: NIVLTQSPASLAVSLGQRATISCRASESVDSYGNSYMHWYQQKPGQPPKLLIYLASNLESGVPARFSGSGSRTDFTLTIDPVEADDAATYYCQQNNEDPFTFGSGTKLEIKRNIQMTQTTSSLSASLGDRVTISCRASQDISNCLNWYQQKPDGTVKLLIYYTSRLHSGVPSRFSGSGSGTDYSLTISNLEQEDIATYFCQQGKTLPYAFGGGTKLEINRRTVAAPSVFIFPPSDEQLKSGTASVVCLLNNFYPREAKVQWKVDNALQSGNSQESVTEQDSKDSTYSLSSTLTLSKADYEKHKVYACEVTHQGLSSPVTKSFNRGEC
notes: 13F5.G5 V domains fused directly (no linker) to the N-terminus of 3D12.E3 V domains; human Cγ1/Cκ; also called hIL-1α/βDVD1-Ig
- neutralizing activity, MRC-5 bioassay, fold less than the chimeric Abs [3]: 3 fold
- fold lower affinity than the chimeric 3D12.E3 Ab [4]: 2 to 3 fold

B4: hIL-1a/bDVD6b-Ig (bispecific antibody, human IgG1, kappa)
heavy: not shown
light: QIVLTQSPAIMSASPGEKVTITCSASSSVSYMHWFQQKPGASPKLWIYSTSNLASGVPARFSGSGSGTSYSLTVSRMEAEDAATYYCQQRSTYPYTFGGGTKLEIKRTVAAPSVFIFPPQIVLTQSPALMSASPGEKVTMTCSASSSVNYMYWYQQKPRSSPKPWIYLTSNLASGVPARFSGSGSGTSYSLTISSMEAEDAATYYCQQWNSNPYTFGGGTKLEMKRRTVAAPSVFIFPPSDEQLKSGTASVVCLLNNFYPREAKVQWKVDNALQSGNSQESVTEQDSKDSTYSLSSTLTLSKADYEKHKVYACEVTHQGLSSPVTKSFNRGEC
- Potency (IC50) M, IL-1α, MRC-5 bioassay [1]: 1 nM
- Potency (IC50) M, IL-1β, MRC-5 bioassay [2]: 0.75 nM

B5: DVD1812LL (anti-IL-18/IL-12 DVD-Ig, 18-12-C, long linker) (bispecific antibody)
heavy: EVQLVQSGTEVKKPGESLKISCKGSGYTVTSYWIGWVRQMPGKGLEWMGFIYPGDSETRYSPTFQGQVTISADKSFNTAFLQWSSLKASDTAMYYCARVGSGWYPYTFDIWGQGTMVTVSSASTKGPSVFPLAPQVQLVESGGGVVQPGRSLRLSCAASGFTFSSYGMHWVRQAPGKGLEWVAFIRYDGSNKYYADSVKGRFTISRDNSKNTLYLQMNSLRAEDTAVYYCKTHGSHDNWGQGTMVTVSS
light: EIVMTQSPATLSVSPGERATLSCRASESISSNLAWYQQKPGQAPRLFIYTASTRATDIPARFSGSGSGTEFTLTISSLQSEDFAVYYCQQYNNWPSITFGQGTRLEIKRTVAAPSVFIFPPQSVLTQPPSVSGAPGQRVTISCSGSRSNIGSNTVKWYQQLPGTAPKLLIYYNDQRPSGVPDRFSGSKSGTSASLAITGLQAEDEADYYCQSYDRYTHPALLFGTGTKVTVLG
notes: see recheck on the constant domain of the DVD1812 light chains; also called DVD1812HC-LL/DVD1812LC-LL
- Potency (IC50, M), IL-12, PHA blast / PBMC assay [5]: 1.18e-10 M
- Potency (IC50, M), IL-18, KG-1 bioassay [6]: 7.8e-11 M
- Kd [7]: 0.113 nM
- Kd [8]: 0.162 nM

From US20070071675A1 (AbbVie / Abbott, published 2007)
